Data published in patent publication US20090191186A1 (KALOBIOS PHARMACEUTICALS, published 2009).

B1: Fab SEQ ID NOs: 13, 4 (Fab, V domains shown)
VH: QVQLVESGGGVVQPGRSLRLSCAASGFTFSSYPLHWVRQAPGKGLEWVSFISYDGSEKYYASSVKGRFTISRDNSENTLYLQMNSLRPEDTAVYYCARNRGDIYYDFTYAMDIWGQGTMVTVSS
VL: DIQMTQSPSSLSASVGDRVTITCRASQSISRWVAWYQQRPGKAPNLLIYDASSLKSGVPSRFSGSGSGTEFTLTISSLQPEDIATYYCQQFWSTPYTFGQGTKLEIK
B2: Fab SEQ ID NOs 3, 4 (Fab, V domains shown)
VH: QVQLVESGGGVVQPGGSLRLSCAASGFTFSTAGMHWVRQAPGKGLEWVAVIWYNGKEISYADSVKGRFTVSRDNPKNTLYLQMSSLRTEDTAVYYCARNRGDIYYDFTYAMDIWGQGTMVTVSS
VL: DIQMTQSPSSLSASVGDRVTITCRASQSISRWVAWYQQRPGKAPNLLIYDASSLKSGVPSRFSGSGSGTEFTLTISSLQPEDIATYYCQQFWSTPYTFGQGTKLEIK
B3: Fab SEQ ID NOs. 24, 26 (Fab, V domains shown)
VH: EVQLVESGGGVVQPGRSLRLSCAASGFTFSNYPMHWVRQAPGKGLEWVAVISYDGSEKWYADSVKGRFTISRDNSKNTLYLEMNSLRPEDTAVYYCARNRGDIYYDFTYAMDIWGQGTTVTVSS
VL: DIQLTQSPSTLSASVGDSVTITCRASEGVDRWLAWYQQKPGRAPKLLIYDASTLQSGVPSRFSGSGSGTEFSLTISSLQPDDVATYYCQHFWGTPYTFGQGTKLEIK
B4: Fab SEQ ID NOs: 13, 10 (Fab, V domains shown)
VH: QVQLVESGGGVVQPGRSLRLSCAASGFTFSSYPLHWVRQAPGKGLEWVSFISYDGSEKYYASSVKGRFTISRDNSENTLYLQMNSLRPEDTAVYYCARNRGDIYYDFTYAMDIWGQGTMVTVSS
VL: DIQLTQSPSFLSASVGDRVTITCRASQGISTYLAWYQQKPGKAPKLLIYDASALQSGVPSRFSGSGSGTEFTLTISSLQPEDVATYYCQQFWSTPYTFGQGTKLEIK
B5: Fab SEQ ID NOs: 13, 37 (Fab, V domains shown)
VH: QVQLVESGGGVVQPGRSLRLSCAASGFTFSSYPLHWVRQAPGKGLEWVSFISYDGSEKYYASSVKGRFTISRDNSENTLYLQMNSLRPEDTAVYYCARNRGDIYYDFTYAMDIWGQGTMVTVSS
VL: DIQMTQSPSSLSASVGDRVTITCRASQSISRWVAWYQQRPGKAPNLLIYDASSLKSGVPSRFSGSGSGTEFTLTISSLQPEDIATYYCQQFWGTPYTFGQGTKLEIK
B6: Fab SEQ ID NOs. 35. 36 (Fab, V domains shown)
VH: EVQLVESGGGVVQPGRSLRLSCAASGFTFSNYPMHWVRQAPGKGLEWVAVISYDGSEKWYADSVKGRFTISRDNSKNTLYLEMNSLRPEDTAVYYCARNRGDIYYDFTYAMDYWGQGTTVTVSS
VL: DIQLTQSPSTLSASVGDSVTITCRASEGVDRWLAWYQQKPGRAPKLLIYDASTLQSGVPSRFSGSGSGTEFSLTISSLQPDDVATYYCQHFWSTPYTFGQGTKLEIK
B7: Fab SEQ ID NOs: 5, 6 (Fab, V domains shown)
VH: QVQLVESGGGVVQPGRSLRLSCTASGFSFSSYGMHWVRQAPGKGLEWVAVIWYNGKEISYADSVKGRFTVSRDNPKNTLYLQMSSLRTEDTAVYYCARNRGDIYYDFTYAMDIWGQGTMVTVSS
VL: AIQLTQSPSFLSASVGDRVTITCRASQGISTYLAWYQQKPGKAPKLLIYAASSLQSGVPSRFSGSGSGTDFTLTISSLQPEDVATYYCQQFWSTPYTFGQGTKLEIK

molecular target: PcrV of the Type III secretion system on P. aeruginosa strain PA103 (Pseudomonas aeruginosa strain PA103); experiment: cell-based or functional assay

Q: B1 was tested. Which “IC50 (nM), TTSS-dependent cytotoxicity assay (PA103 killing of P3-X63-Ag8 cells)” value (shortened to “IC50 (nM)”) did it give?
A: 20 nM

Q: How did the “IC50 (nM)” value turn out when B2 was run?
A: 35.1 nM

Q: B3 was tested. Which “IC50 (nM)” value did it give?
A: 25.5 nM

Q: How did the “IC50 (nM)” value turn out when B4 was run?
A: 25.5 nM

Q: B5 was tested. Which “IC50 (nM)” value did it give?
A: 12 nM

Q: With B6 as the binder, how does the “IC50 (nM)” value read?
A: 61.4 nM

Q: Which “IC50 (nM)” value does the source give for B7 here?
A: 50.2 nM
